Positions count from the first letter of the chain named. Names and notes keep the numbering of the source.

Assay [1] concerns the target wild type dynamin (dynWT; recombinant dynamin 1) (UniProt Q05193). The assay is described as follows: FLIM/FRET in fixed podocytes; donor GTPase-a488, acceptor Hudy1-a568; self-assembly.
Assay [2] shares this target. The assay is described as follows: FLIM/FRET in fixed podocytes treated with LPS; donor GTPase-Alexa488, acceptor Hudy1-Alexa568; self-assembly.
For assay [3] the target is unchanged. As to the kind of experiment: FLIM/FRET in fixed podocytes treated with cytochalasin D; donor GTPase-a488, acceptor Hudy1-a568; self-assembly.
Assay [4] has the same target. As to the kind of experiment: FLIM/FRET in fixed podocytes treated with LPS + E64; donor GTPase-Alexa488, acceptor Hudy1-Alexa568; self-assembly.
The target is the same in assay [5]. The assay is described as follows: FLIM/FRET in fixed podocytes; donor GTPase-alexa488, acceptor hudy1-alexa568; the value differs from the WT row of Table 1.
The target is the same in assay [6]. As to the kind of experiment: FLIM/FRET in fixed podocytes treated with colchicine; donor GTPase-a488, acceptor Hudy1-a568; variant not given, taken as WT.
The target is the same in assay [7]. As to the kind of experiment: FLIM/FRET in fixed podocytes treated with jasplakinolide; donor GTPase-a488, acceptor Hudy1-a568; variant not given, taken as WT.
Assay [8] shares this target. As to the kind of experiment: FLIM/FRET in fixed podocytes expressing the variant; donor GTPase-Alexa488, acceptor Hudy1-Alexa568; shorter lifetime = dynamin higher order self-assembly.
The target is the same in assay [9]. The assay is described as follows: FLIM/FRET in fixed podocytes; donor GTPase-a488, acceptor GTPase-a568 (same antibody on both); the text says no FRET signal was detected with this antibody pair.
Assay [10] deals with dynK694A (assembly impaired, dominant activating dynamin mutant) (UniProt Q05193). The assay is described as follows: FLIM/FRET in fixed podocytes; donor GTPase-a488, acceptor Hudy1-a568; self-assembly.
Assay [11] shares this target. The assay is described as follows: FLIM/FRET in fixed podocytes treated with cytochalasin D; donor GTPase-a488, acceptor Hudy1-a568; self-assembly.
Assay [12] has the same target. As to the kind of experiment: FLIM/FRET in fixed podocytes expressing the variant; donor GTPase-Alexa488, acceptor Hudy1-Alexa568; self-assembly.
A further assay deals with T1, EYFP-dynK694A fusion (UniProt Q05193 1-864).
T1 construct: also called YFP-K694A; not shown: EYFP tag
T1 sequence (looked up): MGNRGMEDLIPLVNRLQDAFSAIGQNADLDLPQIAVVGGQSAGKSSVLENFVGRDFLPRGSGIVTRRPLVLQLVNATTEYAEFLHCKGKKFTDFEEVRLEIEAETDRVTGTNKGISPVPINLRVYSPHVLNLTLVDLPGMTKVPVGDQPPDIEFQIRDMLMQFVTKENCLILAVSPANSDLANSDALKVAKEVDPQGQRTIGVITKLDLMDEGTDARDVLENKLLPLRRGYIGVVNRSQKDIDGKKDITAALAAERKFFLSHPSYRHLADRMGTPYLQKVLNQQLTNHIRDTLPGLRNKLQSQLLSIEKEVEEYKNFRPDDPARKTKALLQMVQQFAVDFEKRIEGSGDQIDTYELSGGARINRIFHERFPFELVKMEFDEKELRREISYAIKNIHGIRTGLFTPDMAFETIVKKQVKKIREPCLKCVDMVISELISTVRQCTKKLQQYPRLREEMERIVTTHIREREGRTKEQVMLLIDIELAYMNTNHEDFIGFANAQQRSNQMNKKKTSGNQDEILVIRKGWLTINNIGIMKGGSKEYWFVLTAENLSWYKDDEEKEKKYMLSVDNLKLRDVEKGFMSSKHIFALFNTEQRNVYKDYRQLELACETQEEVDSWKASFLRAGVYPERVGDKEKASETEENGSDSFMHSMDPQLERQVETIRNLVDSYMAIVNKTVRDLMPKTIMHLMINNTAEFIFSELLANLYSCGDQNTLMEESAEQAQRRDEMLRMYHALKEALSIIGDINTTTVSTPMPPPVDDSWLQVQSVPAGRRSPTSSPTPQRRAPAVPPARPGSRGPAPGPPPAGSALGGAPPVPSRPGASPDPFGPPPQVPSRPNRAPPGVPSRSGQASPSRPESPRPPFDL
The assay is described as follows: FLIM/FRET in live COS cells; lifetime of the ECFP donor; self-assembly.

The target in the next assay is T2, EYFP-dynI690K fusion (UniProt Q05193 1-864).
T2 construct: it is read as I690K; also called YFP-1690K; not shown: EYFP tag
T2 sequence (looked up): T1 sequence (looked up) with I690K, A694K
The assay is described as above.

Assay [13] addresses T3, EYFP-dynamin wild type fusion (UniProt Q05193 1-864).
T3 construct: also called YFP-WT; EYFP-dynWT; not shown: EYFP tag
T3 sequence (looked up): T1 sequence (looked up) with A694K
The assay is described as above.

Consider “wild type dynamin (dynWT; recombinant dynamin 1) (from UniProt Q05193 1-864) (enzyme)”, for which the Mean Lifetime (γ1) turned out to be 2250 ps in assay [1]; 2560 ps in assay [2]; 2030 ps in [3]; 2280 ps in [4]; 2300 ps in assay [6]; 2250 ps in [7]. Further, the Mean Lifetime (γ1) in assay [8] stood at 2210 ps; in assay [9], 2420 ps. Further, in assay [5], the lifetime t1 came out at 2270 ps.

B1: dynK694A (assembly impaired, dominant activating dynamin mutant) (enzyme, UniProt Q05193 1-864, looked up)
chain: T1 sequence (looked up)
Consider B1, for which the results for the Mean Lifetime (γ1) in [10], in [11] and in [12] were 2410 ps, 2050 ps and 2410 ps, respectively.

B2: ECFP-dynK694A fusion (other, UniProt Q05193 1-864, looked up)
chain: T1 sequence (looked up)
notes: also called CFP-K694A; not shown: ECFP tag
In the case of B2, the “Mean Lifetime (γ1) ps” value with EYFP-dynK694A fusion came out at 1300 ps.

B3: ECFP-dynI690K fusion (other, UniProt Q05193 1-864, looked up)
chain: T1 sequence (looked up) with I690K, A694K
notes: it is read as I690K; also called CFP-1690K; not shown: ECFP tag
B3: the “Mean Lifetime (γ1) ps” value with EYFP-dynI690K fusion was 2070 ps; in assay [13], 1110 ps.

The record behind these values is patent publication US20100272709A1 (GENERAL HOSPITAL, published 2010).
